Measured values reported in paper PMC6459835, “The RNA binding activity of the first identified trypanosome protein with Z-DNA-binding domains”.

Assays:
Test in all cases: EMSA
Details in all cases: RBB50: 20 mM Tris-HCl pH 7.6, 50 mM KCl, 5 mM MgCl2, 100 mg/mL BSA (so in the source), 10% glycerol, 1 mM DTT, plus 100 mM KCl and 20 U RNasin; 20 ul, 30 min, RT …
[1] = test system: RBP7910 F167A (Trypanosoma brucei)
[2] = test system: RBP7910 P164A (Trypanosoma brucei)
[3] = test system: RBP7910 P76A (Trypanosoma brucei)
[4] = test system: RBP7910 P77A (Trypanosoma brucei)
[5] = test system: RBP7910 R53A (Trypanosoma brucei)
[6] = test system: RBP7910 T52A (Trypanosoma brucei)
[7] = test system: RBP7910 W188A (Trypanosoma brucei)
[8] = test system: RBP7910 W56A (Trypanosoma brucei)
[9] = test system: RBP7910 W79A (Trypanosoma brucei)

## gA6[14] (delta16G) gRNA with U-tail
[1]
  Kd: 0.3 nM
[2]
  Kd: 0.27 nM
[3]
  Kd: 0.18 nM
[4]
  Kd: 0.3 nM
[5]
  Kd: 0.81 nM
[6]
  Kd: 0.61 nM
[7]
  Kd: 0.55 nM
[8]
  Kd: 0.37 nM
[9]
  Kd: 0.32 nM
